Assay results taken from patent publication US20250026836A1.

Key:
[1] = target: HLA-G1 isoform expressed on Expi293F cells (human) (UniProt P17693); test: flow cytometry on Expi293F cells transfected with HLA-G1, negative control staining
[2] = target: HLA-G2 isoform expressed on Expi293F cells (human) (UniProt P17693); test: flow cytometry on Expi293F cells transfected with HLA-G2, negative control staining
[3] = target: HLA-G4 isoform expressed on Expi293F cells (human) (UniProt P17693); test: flow cytometry on Expi293F cells transfected with HLA-G4, negative control staining
[4] = target: HLA-G2 isoform expressed on Expi293F cells (human) (UniProt P17693); test: flow cytometry on Expi293F cells transfected with HLA-G2, negative control staining; same profile as the HLA-G2 row of FIG. 5A, drawn larger
[5] = target: HLA-G1 isoform expressed on Expi293F cells (human) (UniProt P17693); test: flow cytometry on Expi293F cells transfected with HLA-G1, antibody 10 µg/ml
[6] = target: HLA-G2 isoform expressed on Expi293F cells (human) (UniProt P17693); test: flow cytometry on Expi293F cells transfected with HLA-G2, antibody 10 µg/ml
[7] = target: HLA-G3 isoform expressed on Expi293F cells (human) (UniProt P17693); test: flow cytometry on Expi293F cells transfected with HLA-G3, antibody 10 µg/ml
[8] = target: HLA-G4 isoform expressed on Expi293F cells (human) (UniProt P17693); test: flow cytometry on Expi293F cells transfected with HLA-G4, antibody 10 µg/ml

Substance | % (positive cells) [1] [%] | % (positive cells) [2] [%] | % (positive cells) [3] [%] | % (positive cells) [4] [%] | % of the cells stained [5] [%] | % of the cells stained [6] [%] | % of the cells stained [7] [%] | % of the cells stained [8] [%]
2nd Ab (neg CTRL) (antibody) | 1 | 1 | 2 | 1 |  |  |  | 
commercial Mouse anti-HLA-G antibody 4H84 (Abcam, Mouse IgG1) |  |  |  |  | 81 | 34 | 67 | 16
